Series [1] deals with T1, RAR/RXR heterodimer (RARAΔABF with RXRAΔAB) (mouse (printed as MmRARAΔABF; the same …, UniProt P11416 82-421; P19793 126-462).
T1 construct: retinoic acid receptor alpha, residues 82-421 of Uniprot entry P11416; as the chain of m1; as the chain of m2; 1:1 heterodimer by SEC-MALS; this is told in the format of each assay; also called RR–DR0; source: E. coli BL21 (DE3); RAR and RXR purified separately, mixed (2-fold excess of RAR), heterodimer purified by SEC (Superdex 200); not shown: His6, N-terminal, cleaved
T1 sequence (looked up) 1: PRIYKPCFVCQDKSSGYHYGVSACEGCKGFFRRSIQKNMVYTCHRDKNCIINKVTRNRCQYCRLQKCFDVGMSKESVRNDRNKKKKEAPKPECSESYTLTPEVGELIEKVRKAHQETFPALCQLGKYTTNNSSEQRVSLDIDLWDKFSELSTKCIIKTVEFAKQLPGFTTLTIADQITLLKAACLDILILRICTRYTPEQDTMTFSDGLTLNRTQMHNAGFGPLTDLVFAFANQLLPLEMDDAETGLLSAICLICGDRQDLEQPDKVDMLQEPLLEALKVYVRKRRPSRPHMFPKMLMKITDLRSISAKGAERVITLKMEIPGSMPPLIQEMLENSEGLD
T1 sequence (looked up) 2: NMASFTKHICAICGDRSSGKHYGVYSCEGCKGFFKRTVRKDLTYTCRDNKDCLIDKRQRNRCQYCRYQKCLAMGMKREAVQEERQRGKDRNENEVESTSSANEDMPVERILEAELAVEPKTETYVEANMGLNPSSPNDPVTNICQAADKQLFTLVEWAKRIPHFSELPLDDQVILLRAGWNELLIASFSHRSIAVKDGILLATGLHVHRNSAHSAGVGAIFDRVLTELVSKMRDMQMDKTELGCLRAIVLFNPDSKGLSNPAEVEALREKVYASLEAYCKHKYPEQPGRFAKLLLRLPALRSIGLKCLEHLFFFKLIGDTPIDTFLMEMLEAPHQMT
Kind of series: MST; RR–DR0 with BMS493; heterodimer titrated against labelled NCoRNID; same buffer, 22°C. The settings on record: both partners purified.

Series [2] deals with T1, RAR/RXR heterodimer (RARAΔABF with …). Kind of series: MST; RR–DR1 with BMS493; heterodimer titrated against labelled NCoRNID; same buffer, 22°C. The settings on record: both partners purified.
Series [3] has the same target. Description: MST; RAR/RXR bound to DR5 DNA (RR–DR5), no ligand (apo); heterodimer titrated against labelled NCoRNID; same buffer, 22°C. The settings on record: both partners purified.
Series [4] has the same target. Kind of series: MST; RAR/RXR bound to DR1 DNA (RR–DR1), no ligand (apo); heterodimer titrated against labelled NCoRNID; same buffer, 22°C. The settings on record: both partners purified.
The target is the same in series [5]. Description: MST; RAR/RXR without DNA, no ligand (apo); heterodimer in 2-fold serial dilution from 20 μM, added to an equal volume of 80 nM Atto647N-NCoRNID; 20 mM Tris–HCl pH 7.5, 75 mM NaCl, 75 mM KCl, 2 mM CHAPS, 4 mM MgCl2, 5% glycerol, 0.05% Tween-20; 22°C. Particulars: both partners purified.
Series [6] shares this target. Kind of series: MST; RAR/RXR bound to DR0 DNA (RR–DR0), no ligand (apo); heterodimer titrated against labelled NCoRNID; same buffer, 22°C. The settings on record: both partners purified.
Series [7] has the same target. Description: MST; RR–DR1 with the agonists AM580 + CD3254; heterodimer titrated against labelled NCoRNID; same buffer, 22°C. Particulars: both partners purified.
The target is the same in series [8]. Description: MST; RR–DR5 with BMS493; heterodimer titrated against labelled NCoRNID; same buffer, 22°C. Particulars: both partners purified.
The target is the same in series [9]. Kind of series: MST; RR–IR0 with BMS493; heterodimer titrated against labelled NCoRNID; same buffer, 22°C. Particulars: both partners purified.
The target is the same in series [10]. Description: MST; RAR/RXR bound to IR0 DNA (RR–IR0), no ligand (apo); heterodimer titrated against labelled NCoRNID; same buffer, 22°C. Particulars: both partners purified.
Series [11] shares this target. Kind of series: MST; RAR/RXR without DNA, with BMS493; heterodimer titrated against labelled NCoRNID; same buffer, 22°C. The settings on record: both partners purified.
The target of series [12] is RARalpha dAB dF;RXRalpha dAB;NCoR NID (Mus musculus / Homo sapiens (Methods …, UniProt P11416;P19793;Q60974 82-421;126-462;2059-2325, ||)). Description: SEC-SAXS; BMS493; Fluorescence anisotropy: 20 mM Tris-HCl pH 7.5, 75 mM NaCl, 75 mM KCl, 2 mM CHAPS, 4 mM MgCl2, 2 mM TCEP, 10% glycerol, 0.5 nM Cy5-DNA, 4 uM ligands, 294 K. The settings on record: protein: recombinant;recombinant;recombinant; tags: N-terminal His6 (pET15b); copies: 1;1;1; blunt.

Series [13] deals with RARalpha dAB dF;RXRalpha dAB (Mus musculus / Homo sapiens (Methods …, UniProt P11416;P19793 82-421;126-462, |)). Kind of series: SEC-SAXS; apo; Fluorescence anisotropy: 20 mM Tris-HCl pH 7.5, 75 mM NaCl, 75 mM KCl, 2 mM CHAPS, 4 mM MgCl2, 2 mM TCEP, 10% glycerol, 0.5 nM Cy5-DNA, 4 uM ligands, 294 K. Particulars: protein: recombinant;recombinant; tags: N-terminal His6 (pET15b); copies: 1;1; blunt. (In gel filtration, larger molecules generally elute earlier.)

B1: Atto647N-labeled NCoRNID (domain or fragment, UniProt Q60974 2059-2325, looked up)
chain: QVPRTHRLITLADHICQIITQDFARNQVPSQASTSTFQTSPSALSSTPVRTKTSSRYSPESQSQTVLHPRPGPRVSPENLVDKSRGSRPGKSPERSHIPSEPYEPISPPQGPAVHEKQDSMLLLSQRGVDPAEQRSDSRSPGSISYLPSFFTKLESTSPMVKSKKQEIFRKLNSSGGGDSDMAAAQPGTEIFNLPAVTTSGAVSSRSHSFADPASNLGLEDIIRKALMGSFDDKVEDHGVVMSHPVGIMPGSASTSVVTSSEARRDE
modifications: Atto647N label (site not stated)
With B1, the Kd in series [1] is 244 nM; in series [2] it was 499 nM; in [3] it was 283 nM; in [4], 531 nM; in series [5], 490 nM; in series [6] it was 414 nM. The Kd in [7] is 5300 nM; in series [8], 335 nM; in series [9] it was 289 nM; in [10] it was 289 nM; in [11], 368 nM.

B2: DR0L Hoxb13 (dsDNA)
DNA 1: CTTCCAGGAAGGTCAAGGCCAAGTTGAAAG
DNA 2: CTTTCAACTTGGCCTTGACCTTCCTGGAAG
As to B2, the binding result in series [12] and in series [13] was “binds” each time.

As usually defined, the Kd is the equilibrium constant for the complex coming apart.

The record behind these values is publication PMC12489474, “New structural insights into the control of the retinoic acid receptors RAR/RXR by DNA, ligands, and transcriptional coregulators” (Nucleic Acids Research, 2025).
